Measured values from US20220041716A1 (BEIJING NEOLETIX BIOLOGICAL TECHNOLOGY, published 2022).

T1: human extracellular domain of TLT-1-Fc tagged protein (sTLT-1-Fc) (human, UniProt Q86YW5 16-162)
T1 construct: also called SILT-1-Fc; extracellular domain of human TLT-1; not shown: Fc tag
T1 sequence: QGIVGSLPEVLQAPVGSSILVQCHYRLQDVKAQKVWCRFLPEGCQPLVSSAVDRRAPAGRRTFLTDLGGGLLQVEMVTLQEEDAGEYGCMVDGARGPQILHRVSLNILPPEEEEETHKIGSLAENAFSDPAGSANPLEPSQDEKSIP

T2: human extracellular domain of TLT-1-Fc tagged protein (sTLT-1-Fc) (UniProt Q86YW5 16-162)
T2 chain: T1 sequence

T3: mouse TLT-1 on activated mouse platelets (mouse, UniProt Q8K558 21-317)
T3 construct: whole, on cells
T3 sequence (looked up): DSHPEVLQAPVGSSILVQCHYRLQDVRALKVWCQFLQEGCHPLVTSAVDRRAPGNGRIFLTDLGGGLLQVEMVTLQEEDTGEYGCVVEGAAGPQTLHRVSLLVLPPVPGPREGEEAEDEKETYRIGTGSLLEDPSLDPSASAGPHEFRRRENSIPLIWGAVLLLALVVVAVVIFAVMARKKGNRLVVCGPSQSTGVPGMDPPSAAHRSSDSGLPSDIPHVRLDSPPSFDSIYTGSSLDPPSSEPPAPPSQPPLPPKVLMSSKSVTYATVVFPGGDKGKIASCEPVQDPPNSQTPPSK

B1: sTF209-PC1-sdAb 2-33TLT-His (other)
chain: MASMSGTTNTVAAYNLTWKSTNFKTILEWEPKPVNQVYTVQISTKSGDWKSKCFYTTDTECDLTDEIVKDVKQTYLARVFSYPAGNVESTGSAGEPLYENSPEFTPYLETNLGQPTIQSFEQVGTKVNVTVEDERTLVRRNNTFLSLRDVFGKDLIYTLYYWKSSSSGKKTAKTNTNEFLIDVDKGENYCFSVQAVIPSRTVNRKSTDSPVECGSGGGTGGGSGGSGGGTGGGSGAIEPRSFSQNQVQLVESGGGLVQPGGSLTLSCAASGSIANIGGMAWYRRLPGNKRAMVASITSAGTASSYIDSVKGRFTISRDNAKNTVYLQMTSLKPEDTAVYLCKAWDRDLVDYWGQGIQVTVSSHHHHHH
notes: the entry also holds vector-derived N-terminal residues; also called sTF209-PC1-dAb 2-33TLT-His; sTF209-sdAb 2-33TLT-His
B2: sdAb 2-33TLT-His (VHH)
VHH: QVQLVESGGGLVQPGGSLTLSCAASGSIANIGGMAWYRRLPGNKRAMVASITSAGTASSYIDSVKGRFTISRDNAKNTVYLQMTSLKPEDTAVYLCKAWDRDLVDYWGQGIQVTVSS
notes: also called sdAb-2-33-His
B3: sTF209-PC1-sdAb 2-90TLT-His (other)
chain: MASMSGTTNTVAAYNLTWKSTNFKTILEWEPKPVNQVYTVQISTKSGDWKSKCFYTTDTECDLTDEIVKDVKQTYLARVFSYPAGNVESTGSAGEPLYENSPEFTPYLETNLGQPTIQSFEQVGTKVNVTVEDERTLVRRNNTFLSLRDVFGKDLIYTLYYWKSSSSGKKTAKTNTNEFLIDVDKGENYCFSVQAVIPSRTVNRKSTDSPVECGSGGGTGGGSGGSGGGTGGGSGAIEPRSFSQNQVQLVESGGGLVQAGGSLTLSCAASGSTSGINVMAWYRQAPGKQRELVANKARGGLPKYADFAKGRFTISRDNTKNTISLQMNSLKPEDTAVYYCNALLDWRLGDYWGQGTQVTVSSHHHHHH
notes: the entry also holds vector-derived N-terminal residues
B4: sdAb 2-90TLT-His (VHH)
VHH: QVQLVESGGGLVQAGGSLTLSCAASGSTSGINVMAWYRQAPGKQRELVANKARGGLPKYADFAKGRFTISRDNTKNTISLQMNSLKPEDTAVYYCNALLDWRLGDYWGQGTQVTVSS
notes: also called sdAb-2-90-His

Columns and labels:
[1] = target: T1, human extracellular domain of TLT-1-Fc …; assay: ELISA, human TLT-1 extracellular domain coated, anti-His-HRP detection, Kd fitted from OD450
Experimental: The extracellular domain of human TLT-1 protein was coated onto a 96-well plate for ELISA. After 24 hours incubation at 4° C. and 2 hours of blocking at room temperature (RT) with the blocking buffer, increasing concentrations of ten anti-TLT-1 sdAbs, sTF₂₀₉-PC1sdAb 2-33TLT-His and sTF₂₀₉-PC2sdAb 2-90TLT-His proteins were added to the respective wells for 1-hour incubation at RT. Anti-His tag—HRP-labeled antibody was used to evaluate the binding.
The binding of sdAb 2-33TLT-His, sdAb 2-132TLT-His, sdAb 2-25TLT-His, sdAb 2-64 TLT-His, sdAb 2-90TLT-His, sdAb 2-127TLT-His, sdAb 2-2 TLT-His, sdAb 3-32TLTcur-His; sdAb 3-38TLT-His and sdAb 2-69TLT-His, sTF₂₀₉-PC1-sdAb 2-33TT-His and s TF₂₀₉-PC1-sdAb 2-90TLT-His proteins to the human extracellular domain of TLT-1-Fc tagged protein (sTLT-1-Fc) was analyzed using ELISA, sTLT-1-Fc (3 μg/ml) was immobilized onto a 96-well plate for 24 hours at 4° C. and each well immobilized with SILT-1-Fc was blocked with 2% BSA PBST (PBS plus 0.1% Tween 20) for 2 hours at room temperature (RT). Serial dilution (1000 nM to 0.001 nM) of TLT-sdAbs and sTF-sdAb fusion proteins was performed and diluted proteins were then added to the coated 96-well platelet and incubated for 1 hour. After 3 times of washing with PBST, anti-His HRP antibody was added and incubated for 1 hour at RT. The plate was then washed for 3 times to remove the excess HRP conjugate and 100 μL TMB substrate was then added and incubated for 10-15 mins. To stop the reaction of color development, 2M sulfuric acid was added to the well.

[2] = target: T2, human extracellular domain of TLT-1-Fc …; assay: ELISA
[3] = target: T2, human extracellular domain of TLT-1-Fc …; assay: ELISA
[4] = target: T3, mouse TLT-1 on activated mouse platelets; assay: flow cytometry, collagen-activated mouse platelets in whole blood, FITC anti-His detection
Experimental: To prepare activated human platelets, ADP (5 and 20 μM) were preincubated with human whole blood and the above proteins were then added to the ADP-treated whole blood. To prepare activated mouse platelets, collagen, at either 5 μg/ml or 10 μg/ml, was preincubated with mouse whole blood and the above proteins were then added to the […] whole blood. The binding of the proteins with platelets was detected with FITC-labeled—anti-His tag antibody.
The binding capability of sdAb 2-33TLT-His, sdAb sTF₂₀₉-PC1-sdAb 2-33TLT-His and sTF₂₀₉-PC1-sdAb 2-90TLT-His proteins to both human and mouse resting and activated platelets was tested by FACS assay. Citrated human (3 donors) and mouse (12 mice) whole blood were collected at room temperature (RT) and 10 μL of whole blood was used for each sample. To activate human platelets, ADP (5 and 20 μM) was used, and incubated with whole blood for 10 min at room temperature (RT). To activate mouse platelet, Type I fibrillary collagen (5 and 10 ug/ml) was used and incubated with whole blood for 10 min at room temperature (RT). […] After incubation for 30 min at room temperature, all samples were fixed with 500 μL of 5% paraformaldehyde for 10 min at RT and. analyzed by FACS (LSR II, Beckon Dickinson, San Jose, Calif.).

[5] = target: T2, human extracellular domain of TLT-1-Fc …; assay: ELISA; second row printed 2-33; plot key shows sdAb 2-90TLT-His

Binder	Kd [1]	Kd [2]	Kd [3]	binding result [4]	Kd [5]
B1	< 10 nM	2.28 nM			
B2	< 10 nM	4.47 nM	2.74 nM		
B3	< 10 nM	1.19 nM		binds	
B4	< 10 nM		2.39 nM	binds	2.67 nM
